This test concerns the target 重组CEA蛋白 (UniProt P06731).
Sequence of UniProt P06731 (P06731 35-685 limits assumed): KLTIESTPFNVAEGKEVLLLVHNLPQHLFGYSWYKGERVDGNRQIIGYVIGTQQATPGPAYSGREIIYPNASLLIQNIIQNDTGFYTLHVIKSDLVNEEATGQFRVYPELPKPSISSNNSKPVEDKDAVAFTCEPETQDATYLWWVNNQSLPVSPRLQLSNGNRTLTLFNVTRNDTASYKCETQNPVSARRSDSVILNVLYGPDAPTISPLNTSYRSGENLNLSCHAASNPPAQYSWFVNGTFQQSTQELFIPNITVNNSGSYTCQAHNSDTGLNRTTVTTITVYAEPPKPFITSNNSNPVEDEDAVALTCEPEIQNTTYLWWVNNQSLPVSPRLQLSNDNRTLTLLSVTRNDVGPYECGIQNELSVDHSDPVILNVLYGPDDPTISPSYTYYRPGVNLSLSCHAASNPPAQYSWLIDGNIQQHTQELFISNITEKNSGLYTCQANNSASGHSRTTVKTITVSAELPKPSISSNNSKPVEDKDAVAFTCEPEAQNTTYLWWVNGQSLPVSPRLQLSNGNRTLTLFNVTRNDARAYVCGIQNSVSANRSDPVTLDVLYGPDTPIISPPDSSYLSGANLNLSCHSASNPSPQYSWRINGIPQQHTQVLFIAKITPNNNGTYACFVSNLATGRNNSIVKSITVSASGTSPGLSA

B1: 1#单抗 (antibody, mouse IgG1, kappa, V domains shown)
VH: QIQLVQSGPELKKPGETVKISCKTSGYTFTNYAMNWVKQAPGKGLKWMGWINTNTGEPTYAEEFKGRFAFSLETSATAAYLQINNLKNDDTASYFCARGWVLYAMDYWGQGTSVTVSS
VL: DIQMTQTTSSLSASLGDRVTISCRASQDISNYLNWYQQKSDGTVKLLIYYTSRLHSGVPSRFSGSGSGTDYSLTISNLDPEDVATYFCQQGDMFMFGGGTKLEIRT
B1 had a 效价 (titer) of 100000.
